Reference: patent publication US20200024322A1 (Eli Lilly, published 2020)
Where a chain is given by its changes, count along the chain named. Numbered stars: 1 amine (or outer) side, 2 acyl side, 3 side chain; on linkers, the order of the positions; unused ones are H or OH. Square brackets hold non-standard residues; d marks the D form. Side chains are listed from the residue outwards. Ends that are not written are not given here. * marks the point of attachment. C20 diacid = O=C(O)CCCCCCCCCCCCCCCCCCC(=O)*; γGlu = O=C(O)[C@H](CCC(=O)[*:2])N[*:1]; αMeL = CC(C)C[C@](C)(N)C(=O)O; AEEA = NCCOCCOCC(=O)O; Aib = CC(C)(N)C(=O)O

T1: human GIP receptor (human, UniProt P48546 22-466)
T1 construct: whole, on cells; Used as crude membranes of stably transfected CHO cells; also called hGIPR
T1 sequence (looked up): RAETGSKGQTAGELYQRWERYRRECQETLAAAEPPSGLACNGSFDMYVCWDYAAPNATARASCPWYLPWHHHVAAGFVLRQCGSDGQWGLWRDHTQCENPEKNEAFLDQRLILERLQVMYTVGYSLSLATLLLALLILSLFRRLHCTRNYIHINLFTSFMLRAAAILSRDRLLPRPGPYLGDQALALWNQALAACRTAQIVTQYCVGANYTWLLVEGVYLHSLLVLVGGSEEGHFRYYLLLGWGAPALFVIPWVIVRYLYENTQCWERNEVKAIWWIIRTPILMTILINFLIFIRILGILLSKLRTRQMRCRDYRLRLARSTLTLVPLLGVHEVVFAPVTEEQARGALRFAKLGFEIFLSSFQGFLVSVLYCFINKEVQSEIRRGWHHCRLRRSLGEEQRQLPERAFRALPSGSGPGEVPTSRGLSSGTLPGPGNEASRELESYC

B1: Example 54 (peptide)
peptide: H[Aib]EGTFTSDYSI[αMeL]LDKK([AEEA-AEEA-γGlu-C20 diacid])AQHAFIEYLIEGGPSSGAPPPS-NH2
modifications: N-terminus assumed
SMILES: CC[C@H](C)[C@H](NC(=O)[C@H](CC(C)C)NC(=O)[C@H](Cc1ccc(O)cc1)NC(=O)[C@H](CCC(=O)O)NC(=O)[C@@H](NC(=O)[C@H](Cc1ccccc1)NC(=O)[C@H](C)NC(=O)[C@H](Cc1c[nH]cn1)NC(=O)[C@H](CCC(N)=O)NC(=O)[C@H](C)NC(=O)[C@H](CCCCNC(=O)COCCOCCNC(=O)COCCOCCNC(=O)CC[C@H](NC(=O)CCCCCCCCCCCCCCCCCCC(=O)O)C(=O)O)NC(=O)[C@H](CCCCN)NC(=O)[C@H](CC(=O)O)NC(=O)[C@H](CC(C)C)NC(=O)[C@](C)(CC(C)C)NC(=O)[C@@H](NC(=O)[C@H](CO)NC(=O)[C@H](Cc1ccc(O)cc1)NC(=O)[C@H](CC(=O)O)NC(=O)[C@H](CO)NC(=O)[C@@H](NC(=O)[C@H](Cc1ccccc1)NC(=O)[C@@H](NC(=O)CNC(=O)[C@H](CCC(=O)O)NC(=O)C(C)(C)NC(=O)[C@@H](N)Cc1c[nH]cn1)[C@@H](C)O)[C@@H](C)O)[C@@H](C)CC)[C@@H](C)CC)C(=O)N[C@@H](CCC(=O)O)C(=O)NCC(=O)NCC(=O)N1CCC[C@H]1C(=O)N[C@@H](CO)C(=O)N[C@@H](CO)C(=O)NCC(=O)N[C@@H](C)C(=O)N1CCC[C@H]1C(=O)N1CCC[C@H]1C(=O)N1CCC[C@H]1C(=O)N[C@@H](CO)C(N)=O
B2: Example 62 (peptide)
peptide: YXEGTFTSDYSIXLDKKAQXAFIEYLIEGG
modifications: Aib2; αMeL13; K17((2-[2-(2-Amino-ethoxy)-ethoxy]-acetyl)2-(γ-Glu)-CO-(CH2)18-CO2H); Aib20; C-terminal NH2
B3: Example 65 (peptide)
peptide: B2 peptide with K16T
modifications: Aib2; αMeL13; K17((2-[2-(2-Amino-ethoxy)-ethoxy]-acetyl)2-(γ-Glu)-CO-(CH2)18-CO2H); Aib20; C-terminal NH2
B4: Example 64 (peptide)
peptide: B2 peptide with K16S
modifications: Aib2; αMeL13; K17((2-[2-(2-Amino-ethoxy)-ethoxy]-acetyl)2-(γ-Glu)-CO-(CH2)18-CO2H); Aib20; C-terminal NH2
B5: Example 63 (peptide)
peptide: B2 peptide with K16E
modifications: Aib2; αMeL13; K17((2-[2-(2-Amino-ethoxy)-ethoxy]-acetyl)2-(γ-Glu)-CO-(CH2)18-CO2H); Aib20; C-terminal NH2
B6: Example 59 (peptide)
peptide: YXEGTFTSDYSIXLDEKAQXAFIEYLIEGGPSSGAPPPS
modifications: Aib2; αMeL13; K17((2-[2-(2-Amino-ethoxy)-ethoxy]-acetyl)2-(γ-Glu)-CO-(CH2)18-CO2H); Aib20; C-terminal NH2
B7: Example 60 (peptide)
peptide: B6 peptide with E16X
modifications: Aib2; αMeL13; Aib16; K17((2-[2-(2-Amino-ethoxy)-ethoxy]-acetyl)2-(γ-Glu)-CO-(CH2)18-CO2H); Aib20; C-terminal NH2
B8: Example 3 (peptide)
peptide: B6 peptide with F6X, E16X, A21E, E24X
modifications: Aib2; αMeF(2F)6; αMeL13; Orn16; K17((2-[2-(2-Amino-ethoxy)-ethoxy]-acetyl)2-(γ-Glu)-CO-(CH2)18-CO2H); Aib20; D-Glu24; C-terminal NH2
B9: Example 67 (peptide)
peptide: B6 peptide with X13L, E16K, F22X
modifications: Aib2; K17((2-[2-(2-Amino-ethoxy)-ethoxy]-acetyl)2-(γ-Glu)-CO-(CH2)18-CO2H); Aib20; αMeF22; C-terminal NH2
B10: Example 115 (peptide)
peptide: B6 peptide with F6X
modifications: Aib2; αMeF6; αMeL13; K17((2-[2-(2-Amino-ethoxy)-ethoxy]-acetyl)2-(γ-Glu)-CO-(CH2)18-CO2H); Aib20; C-terminal NH2
B11: Example 68 (peptide)
peptide: B6 peptide with S11X, X13L, E16K
modifications: Aib2; αMeS11; K17((2-[2-(2-Amino-ethoxy)-ethoxy]-acetyl)2-(γ-Glu)-CO-(CH2)18-CO2H); Aib20; C-terminal NH2
B12: Example 57 (peptide)
peptide: B6 peptide with F6X, X13L, E16K
modifications: Aib2; αMeF6; K17((2-[2-(2-Amino-ethoxy)-ethoxy]-acetyl)2-(γ-Glu)-CO-(CH2)18-CO2H); Aib20; C-terminal NH2
B13: Example 116 (peptide)
peptide: B6 peptide with F6X, A21E
modifications: Aib2; αMeF6; αMeL13; K17((2-[2-(2-Amino-ethoxy)-ethoxy]-acetyl)2-(γ-Glu)-CO-(CH2)18-CO2H); Aib20; C-terminal NH2
B14: Example 127 (peptide)
peptide: B6 peptide with F6X, Y10I, X13L, E16K
modifications: Aib2; αMeF6; K17((2-[2-(2-Amino-ethoxy)-ethoxy]-acetyl)2-(γ-Glu)-CO-(CH2)18-CO2H); Aib20; C-terminal NH2
B15: Example 145 (peptide)
peptide: B6 peptide with F6X, Y10A, E16K
modifications: Aib2; αMeF6; αMeL13; K17((2-[2-(2-Amino-ethoxy)-ethoxy]-acetyl)2-(γ-Glu)-CO-(CH2)18-CO2H); Aib20; C-terminal NH2

biological target: T1, human GIP receptor; assay: SPA, [125I]-GIP displacement, hGIPR membranes

Row | Binder | Ki
1 | B1 | 0.965 nM
2 | B2 | 0.0545 nM
3 | B3 | 0.0643 nM
4 | B4 | 0.0866 nM
5 | B5 | 0.141 nM
6 | B6 | 0.136 nM
7 | B7 | 0.0655 nM
8 | B8 | 0.0458 nM
9 | B9 | 0.061 nM
10 | B10 | 0.0302 nM
11 | B11 | 0.0243 nM
12 | B12 | 0.0583 nM
13 | B13 | 0.0597 nM
14 | B14 | 0.126 nM
15 | B15 | 0.0652 nM

biological target: T2, human glucagon receptor (human, UniProt P47871 26-477); assay: SPA, [125I]-Gcg displacement, hGcgR membranes
T2 construct: whole, on cells; Used as crude membranes of stably transfected HEK293 cells; also called hGcgR; hGLcgR
T2 sequence (P47871 26-477): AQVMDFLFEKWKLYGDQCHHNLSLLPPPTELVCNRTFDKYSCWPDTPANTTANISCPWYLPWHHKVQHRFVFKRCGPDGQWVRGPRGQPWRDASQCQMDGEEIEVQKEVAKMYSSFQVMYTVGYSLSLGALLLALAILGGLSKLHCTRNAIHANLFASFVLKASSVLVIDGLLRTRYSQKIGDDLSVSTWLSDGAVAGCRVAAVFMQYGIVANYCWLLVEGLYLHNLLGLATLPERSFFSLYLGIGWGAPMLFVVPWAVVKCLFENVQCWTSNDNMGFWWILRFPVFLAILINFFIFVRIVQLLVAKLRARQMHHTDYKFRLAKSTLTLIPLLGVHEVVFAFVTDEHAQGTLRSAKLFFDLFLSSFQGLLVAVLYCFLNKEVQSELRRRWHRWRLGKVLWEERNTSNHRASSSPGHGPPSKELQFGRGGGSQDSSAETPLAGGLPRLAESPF

Row | Binder | Ki
16 | B1 | 333 nM
17 | B2 | 168 nM
18 | B3 | 194 nM
19 | B4 | 260 nM
20 | B5 | 273 nM
21 | B6 | 292 nM
22 | B7 | 237 nM
23 | B8 | 242 nM
24 | B9 | 270 nM
25 | B10 | 9.89 nM
26 | B11 | 99.2 nM
27 | B12 | 26.1 nM
28 | B13 | 137 nM
29 | B14 | 43.6 nM
30 | B15 | 158 nM

biological target: T3, human GLP-1 receptor (human, UniProt P43220 24-463); assay: SPA, [125I]-GLP-1 displacement, hGLP-1R membranes
T3 construct: whole, on cells; Used as crude membranes of stably transfected HEK293 cells; also called hGLP1R; hGLP-1R

Row | Binder | Ki
31 | B1 | 1.66 nM
32 | B2 | 2.03 nM
33 | B3 | 4.53 nM
34 | B4 | 4.86 nM
35 | B5 | 7.79 nM
36 | B6 | 8.2 nM
37 | B7 | 9.55 nM
38 | B8 | 2.23 nM
39 | B9 | 10.2 nM
40 | B10 | 3.43 nM
41 | B11 | 1.58 nM
42 | B12 | 3 nM
43 | B13 | 6.8 nM
44 | B14 | 1.86 nM
45 | B15 | 2.22 nM
